According to patent US20250011363A1, “OPTIMIZED SHORTENED PEPTIDE THAT BINDS TO ACETYLCHOLINE RECEPTOR, AND USE THEREOF” (SKINMED CO., LTD., priority 2021, published 2025):

molecular target: acetylcholine receptor; experiment: SPR, AchR on CM5 chip, peptide 10 µM

| Binder | Binding affinity (RU) |
| --- | --- |
| KRDEDK [6mer-1-1195] | 25 |
| KKTTGR [6mer-1-1196] | 25 |
| KKTHAK [6mer-1-1194] | 22 |
| KRPMAK [6mer-1-1197] | 21 |

molecular target: acetylcholine receptor; experiment: SPR, acetylcholine receptor on CM5 chip, peptide 10 µM

| Binder | Binding affinity (RU) |
| --- | --- |
| RRRYRK [6mer-2-599] | 121 |
| RSQLKR [6mer-2-593] | 139 |
| KQFCKK [6mer-2-538] | 125 |
| KWQQRR [6mer-2-580] | 121 |
| KLRCKK [6mer-2-595] | 154 |
| KGILRR [6mer-2-591] | 146 |
| KRLTRR [6mer-2-540] | 142 |
| KRISKR [6mer-2-587] | 148 |
| RRVLKK [6mer-2-561] | 142 |
| KWFYKK [6mer-2-588] | 149 |
| KGQLRR [6mer-2-559] | 121 |
| RVQQKR [6mer-2-581] | 139 |
| KGYQKR [6mer-2-563] | 131 |
| KSQRRK [6mer-2-572] | 148 |
| RRQYRR [6mer-2-543] | 144 |
| KWVLRK [6mer-2-557] | 123 |
| KSRRRR [6mer-2-565] | 147 |
| RWVLRK [6mer-2-592] | 122 |
| KRLSKK [6mer-2-566] | 139 |
| KGRLRK [6mer-2-590] | 148 |

| Binder | Binding affinity (RU) |
| --- | --- |
| KVLCKR [6mer-2-537] | 153 |
| RSFRRK [6mer-2-585] | 136 |
| KGIQKK [6mer-2-596] | 153 |
| KQVYRK [6mer-2-564] | 148 |
| RGLLRR [6mer-2-552] | 148 |
| RSVSKK [6mer-2-555] | 154 |
| KLYYRK [6mer-2-567] | 146 |
| RWQLRK [6mer-2-569] | 135 |
| RQYTRR [6mer-2-560] | 153 |
| KWYTKK [6mer-2-539] | 127 |
| RWLSRK [6mer-2-586] | 121 |
| RVFTKK [6mer-2-546] | 127 |
| KGVSRR [6mer-2-576] | 139 |
| KGVYRK [6mer-2-574] | 153 |
| KVFRRR [6mer-2-598] | 146 |
| KSVCKK [6mer-2-558] | 154 |
| RSLQKK [6mer-2-553] | 124 |
| RWQQRK [6mer-2-589] | 153 |
| KGQCRK [6mer-2-541] | 126 |
| RVYYKR [6mer-2-570] | 148 |

Second part, the binder after the results:

| Binding affinity (RU) | Binder |
| --- | --- |
| 135 | RGYQRR [6mer-2-571] |
| 148 | RWQTRK [6mer-2-582] |
| 139 | RGYSRK [6mer-2-575] |
| 135 | RWQYRK [6mer-2-579] |
| 121 | KLYLRR [6mer-2-573] |
| 148 | KRLTRK [6mer-2-584] |
| 142 | KGFQKK [6mer-2-568] |
| 142 | RLQCRR [6mer-2-548] |
| 135 | RWQCKR [6mer-2-547] |
| 141 | KWYTKR [6mer-2-551] |
| 125 | RWQRKK [6mer-2-536] |
| 148 | RSFTKK [6mer-2-550] |
| 147 | KVIQKR [6mer-2-544] |
| 148 | RQIYRR [6mer-2-542] |
| 154 | KQFLRK [6mer-2-597] |
| 125 | KLYCRK [6mer-2-545] |
| 154 | KSVTKK [6mer-2-583] |
| 139 | RSQLKK [6mer-2-600] |
| 142 | KQLCKK [6mer-2-549] |
| 139 | RWYRRR [6mer-2-594] |
| 148 | RSICKK [6mer-2-556] |
| 139 | KRVQRR [6mer-2-577] |
| 136 | RQQRKR [6mer-2-562] |
| 135 | RSVLRK [6mer-2-578] |
| 133 | KLFCRR [6mer-2-535] |
| 121 | RWRCRR [6mer-2-554] |

molecular target: acetylcholine receptor; experiment: SPR, acetylcholine receptor immobilized on chip, peptide at 10 uM

| Binder | Binding affinity (RU) |
| --- | --- |
| RQYRK [5mer-300] | 81 |
| KWVSR [5mer-599] | 61 |
| KGRRK [5mer-299] | 62 |

molecular target: acetylcholine receptor; experiment: SPR, acetylcholine receptor immobilized on CM5 chip, peptide at 10 uM

| Binder | Binding affinity (RU) |
| --- | --- |
| RHSVK [5mer-900] | 29 |
| KNNNR [5mer-1199] | 29 |
| RKNEK [5mer-1200] | 16 |
| RYTFR [5mer-899] | 31 |
